The test system of the data set is Escherichia coli TOP10. In words: shrunken log2 fold change of peptide-encoding DNA abundance (4.5 h post-induction vs induction); higher = less antimicrobial activity (less host growth inhibition). To be noted: time post-induction: 4.5 h; library: site-saturation at positions 5, 18, 19, 20.

Data on 125 sequences can be found in the supplement of paper PMC9112550, “Optimization of the antimicrobial peptide Bac7 by deep mutational scanning” (BMC Biology, 2022).
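Also: peptides expressed intracellularly from a pBAD plasmid library in pooled LB shake-flask culture, induced with 0.3% L-arabinose, DNA abundance read by NGS, three biological replicates, DESeq2 with apeglm shrinkage.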

Regarding RRIRGRPPRLPRPRPRPWVRPRP, the “shrunken log2 fold change” value stood at 0.151. To RRIRIRPPRLPRPRPRPFTAPRP belongs -0.138. Regarding RRIRIRPPRLPRPRPRPKADPRP, the “shrunken log2 fold change” value is 0.204. To RRIRCRPPRLPRPRPRPEHLPRP belongs -0.0545; to RRIRIRPPRLPRPRPRPKCWPRP, 0.139; to RRIRGRPPRLPRPRPRPSLGPRP, 0.488.

Regarding RRIRTRPPRLPRPRPRPQAEPRP, the “shrunken log2 fold change” value is -0.00758. The same measure for RRIRIRPPRLPRPRPRPPSWPRP: 0.0866; for RRIRSRPPRLPRPRPRPFPMPRP: -0.264. To RRIRNRPPRLPRPRPRPCACPRP belongs -0.0293. The same measure for RRIRTRPPRLPRPRPRPQLFPRP: -0.112; for RRIRMRPPRLPRPRPRPFFGPRP: -0.0869; for RRIRKRPPRLPRPRPRPQYKPRP: -0.343.

As for RRIRWRPPRLPRPRPRPEPSPRP, the “shrunken log2 fold change” value was determined as 0.39. Take RRIRIRPPRLPRPRPRPELLPRP: the “shrunken log2 fold change” value is -0.0102. To RRIRHRPPRLPRPRPRPMCDPRP belongs -0.0945; to RRIRHRPPRLPRPRPRPRDWPRP, 0.645. The same measure for RRIRNRPPRLPRPRPRPKMEPRP: 0.015; for RRIRKRPPRLPRPRPRPLVPPRP: 0.516.

Turning to RRIRWRPPRLPRPRPRPRTAPRP, the “shrunken log2 fold change” value is 0.564. The same measure for RRIRRRPPRLPRPRPRPLKGPRP: -0.0966; for RRIRERPPRLPRPRPRPWSFPRP: -0.0191. The same measure for RRIRGRPPRLPRPRPRPTENPRP: 0.682; for RRIRHRPPRLPRPRPRPAKWPRP: -0.0376; for RRIRDRPPRLPRPRPRPDFHPRP: -0.139. In the case of RRIRERPPRLPRPRPRPNVTPRP, the “shrunken log2 fold change” value was -0.199. Consider RRIRERPPRLPRPRPRPVRRPRP, for which the “shrunken log2 fold change” value was -0.172. The same measure for RRIRRRPPRLPRPRPRPFWTPRP: 0.00443; for RRIRHRPPRLPRPRPRPFELPRP: -0.0176. The same measure for RRIRARPPRLPRPRPRPAEFPRP: 0.304; for RRIRNRPPRLPRPRPRPIWAPRP: 0.0814; for RRIRTRPPRLPRPRPRPSENPRP: -0.0993. To RRIRYRPPRLPRPRPRPVQIPRP belongs -0.146.

RRIRLRPPRLPRPRPRPTMKPRP: the “shrunken log2 fold change” value is -0.0755.

Consider RRIRDRPPRLPRPRPRPDWRPRP, for which the “shrunken log2 fold change” value was 0.183. The same measure for RRIRMRPPRLPRPRPRPSFAPRP: 0.301; for RRIRMRPPRLPRPRPRPHYHPRP: -0.493. The same measure for RRIRHRPPRLPRPRPRPNTYPRP: -0.742.

In the case of RRIRSRPPRLPRPRPRPMIHPRP, the “shrunken log2 fold change” value was -0.0892. To RRIRVRPPRLPRPRPRPGEYPRP belongs 0.00369.

RRIRRRPPRLPRPRPRPDDHPRP: the “shrunken log2 fold change” value is -0.276. For the sequence RRIRCRPPRLPRPRPRPYWTPRP, the “shrunken log2 fold change” value is -0.966. To RRIRQRPPRLPRPRPRPGMAPRP belongs 0.0366; to RRIRRRPPRLPRPRPRPNGVPRP, 0.00234; to RRIRKRPPRLPRPRPRPARHPRP, 1.9. The same measure for RRIRVRPPRLPRPRPRPMKMPRP: -0.0573; for RRIRSRPPRLPRPRPRPSWHPRP: -0.206. As to RRIRYRPPRLPRPRPRPGQEPRP, the “shrunken log2 fold change” value is -0.0317. The same measure for RRIRDRPPRLPRPRPRPGKLPRP: 0.0495. To RRIRERPPRLPRPRPRPGWRPRP belongs 0.0971. To RRIRCRPPRLPRPRPRPTNEPRP belongs -0.213; to RRIRCRPPRLPRPRPRPKQWPRP, -0.0437. RRIRTRPPRLPRPRPRPPFNPRP: the “shrunken log2 fold change” value came to 0.0539. To RRIRKRPPRLPRPRPRPSPNPRP belongs 1.52; to RRIRDRPPRLPRPRPRPCWNPRP, -0.389; to RRIRYRPPRLPRPRPRPSLVPRP, -0.291. As for RRIRFRPPRLPRPRPRPILSPRP, the “shrunken log2 fold change” value is -0.101. On to RRIRVRPPRLPRPRPRPDWFPRP, for which the “shrunken log2 fold change” value was -0.597. To RRIRDRPPRLPRPRPRPNLRPRP belongs -0.162.

On to RRIRVRPPRLPRPRPRPEQTPRP, for which the “shrunken log2 fold change” value was -0.0332. To RRIRHRPPRLPRPRPRPPLAPRP belongs 0.378. On to RRIRMRPPRLPRPRPRPTWWPRP, for which the “shrunken log2 fold change” value worked out at 0.596. To RRIRTRPPRLPRPRPRPMCQPRP belongs -0.0075.

For the sequence RRIRLRPPRLPRPRPRPYRCPRP, the “shrunken log2 fold change” value was -0.268.

As for RRIRQRPPRLPRPRPRPVVTPRP, the “shrunken log2 fold change” value was 0.219. The same measure for RRIRYRPPRLPRPRPRPKKRPRP: -0.11; for RRIRLRPPRLPRPRPRPHSGPRP: -0.0238; for RRIRKRPPRLPRPRPRPSLAPRP: 0.614.

RRIRQRPPRLPRPRPRPWSKPRP: the “shrunken log2 fold change” value came to 0.00202. To RRIRCRPPRLPRPRPRPYWCPRP belongs -0.201. Turning to RRIRLRPPRLPRPRPRPFEAPRP, the “shrunken log2 fold change” value is -0.256. RRIRNRPPRLPRPRPRPFCLPRP: the “shrunken log2 fold change” value is -0.363. On to RRIRLRPPRLPRPRPRPHGHPRP, for which the “shrunken log2 fold change” value is -0.126. To RRIRPRPPRLPRPRPRPILTPRP belongs -0.211. Take RRIRARPPRLPRPRPRPWMLPRP: the “shrunken log2 fold change” value is -0.306. As to RRIRFRPPRLPRPRPRPMMDPRP, the “shrunken log2 fold change” value is 0.0995.

With RRIRNRPPRLPRPRPRPMTGPRP, the “shrunken log2 fold change” value was -0.149. To RRIRMRPPRLPRPRPRPWWHPRP belongs 0.158. Consider RRIRNRPPRLPRPRPRPNVHPRP, for which the “shrunken log2 fold change” value is -0.309. To RRIRTRPPRLPRPRPRPFTYPRP belongs -0.00136; to RRIRDRPPRLPRPRPRPHSSPRP, 0.217; to RRIRWRPPRLPRPRPRPWSVPRP, -0.174.

With RRIRNRPPRLPRPRPRPPQWPRP, the “shrunken log2 fold change” value came to 0.315. To RRIRGRPPRLPRPRPRPTICPRP belongs 0.601; to RRIRDRPPRLPRPRPRPFQVPRP, -0.609; to RRIRERPPRLPRPRPRPSVWPRP, 0.0602. The same measure for RRIRDRPPRLPRPRPRPGQHPRP: -0.121; for RRIRWRPPRLPRPRPRPIISPRP: -0.14; for RRIRLRPPRLPRPRPRPDYGPRP: -0.23.

For the sequence RRIRERPPRLPRPRPRPVLYPRP, the “shrunken log2 fold change” value is -0.00668. The same measure for RRIRVRPPRLPRPRPRPLWVPRP: -0.147; for RRIRWRPPRLPRPRPRPEANPRP: 1.14. To RRIRERPPRLPRPRPRPLDPPRP belongs -0.102; to RRIRHRPPRLPRPRPRPVKEPRP, -0.00992. For the sequence RRIRQRPPRLPRPRPRPSNYPRP, the “shrunken log2 fold change” value was -0.0943. The same measure for RRIRMRPPRLPRPRPRPQQSPRP: 0.0524.

As to RRIRKRPPRLPRPRPRPQEPPRP, the “shrunken log2 fold change” value was determined as 0.01. As to RRIRCRPPRLPRPRPRPPFCPRP, the “shrunken log2 fold change” value was determined as 0.291. Take RRIRYRPPRLPRPRPRPWKVPRP: the “shrunken log2 fold change” value was -0.498. RRIRERPPRLPRPRPRPVDSPRP: the “shrunken log2 fold change” value was -0.0113.

As for RRIRRRPPRLPRPRPRPCVGPRP, the “shrunken log2 fold change” value was -0.147. The same measure for RRIRNRPPRLPRPRPRPTRWPRP: 0.292; for RRIRDRPPRLPRPRPRPPCMPRP: -0.317; for RRIRERPPRLPRPRPRPTWSPRP: -0.268. The same measure for RRIRVRPPRLPRPRPRPKLMPRP: -0.203. To RRIRLRPPRLPRPRPRPQWHPRP belongs -0.193; to RRIRTRPPRLPRPRPRPQQNPRP, -0.0459. As to RRIRIRPPRLPRPRPRPSKYPRP, the “shrunken log2 fold change” value was -1.12. To RRIRTRPPRLPRPRPRPAHHPRP belongs -0.0336. The same measure for RRIRYRPPRLPRPRPRPSVQPRP: -0.065. The same measure for RRIRERPPRLPRPRPRPVRKPRP: -0.0457.

Consider RRIRLRPPRLPRPRPRPWTMPRP, for which the “shrunken log2 fold change” value is -0.202. To RRIRVRPPRLPRPRPRPTNLPRP belongs 0.0684; to RRIRDRPPRLPRPRPRPRPHPRP, 0.465; to RRIRMRPPRLPRPRPRPKARPRP, 1.61. The same measure for RRIRKRPPRLPRPRPRPHRKPRP: -0.0475.

Regarding RRIRCRPPRLPRPRPRPSCWPRP, the “shrunken log2 fold change” value turned out to be 0.2.

In the case of RRIRCRPPRLPRPRPRPITPPRP, the “shrunken log2 fold change” value is -0.219. The same measure for RRIRMRPPRLPRPRPRPLNRPRP: 0.0437; for RRIRWRPPRLPRPRPRPQADPRP: -0.104. The same measure for RRIRPRPPRLPRPRPRPEIHPRP: -0.536. To RRIRFRPPRLPRPRPRPTELPRP belongs -0.161; to RRIRNRPPRLPRPRPRPAWNPRP, -0.0495; to RRIRHRPPRLPRPRPRPPTCPRP, 0.0978. Turning to RRIRERPPRLPRPRPRPARGPRP, the “shrunken log2 fold change” value was determined as 0.644.
